From the supplement of paper PMC9112550, “Optimization of the antimicrobial peptide Bac7 by deep mutational scanning” (BMC Biology, 2022) come the findings set out here.

The test system of this data set is Escherichia coli TOP10. Kind of data set: shrunken log2 fold change of peptide-encoding DNA abundance (4.5 h post-induction vs induction); higher = less antimicrobial activity (less host growth inhibition). As to conditions: time post-induction: 4.5 h; library: site-saturation at positions 5, 18, 19, 20.
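Note: peptides expressed intracellularly from a pBAD plasmid library in pooled LB shake-flask culture, induced with 0.3% L-arabinose, DNA abundance read by NGS, three biological replicates, DESeq2 with apeglm shrinkage.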

As to RRIRVRPPRLPRPRPRPFGEPRP, the “shrunken log2 fold change” value stood at 0.092.

On to RRIRNRPPRLPRPRPRPAIVPRP, for which the “shrunken log2 fold change” value is -0.0426.

As for RRIRIRPPRLPRPRPRPVTIPRP, the “shrunken log2 fold change” value stood at 0.00236.

As to RRIRQRPPRLPRPRPRPRKPPRP, the “shrunken log2 fold change” value stood at 0.0318.

As to RRIRPRPPRLPRPRPRPGPCPRP, the “shrunken log2 fold change” value turned out to be 0.363.

In the case of RRIRVRPPRLPRPRPRPDYEPRP, the “shrunken log2 fold change” value worked out at 0.0678.

In the case of RRIRPRPPRLPRPRPRPFLVPRP, the “shrunken log2 fold change” value was -0.0765.

Regarding RRIRSRPPRLPRPRPRPVMFPRP, the “shrunken log2 fold change” value was -0.118.

Consider RRIRQRPPRLPRPRPRPKGQPRP, for which the “shrunken log2 fold change” value is -0.0264.

As for RRIRRRPPRLPRPRPRPKSLPRP, the “shrunken log2 fold change” value is 0.0308.

As to RRIRRRPPRLPRPRPRPHLQPRP, the “shrunken log2 fold change” value is -0.0319.

Turning to RRIRQRPPRLPRPRPRPTNMPRP, the “shrunken log2 fold change” value was -0.521.

In the case of RRIRYRPPRLPRPRPRPWEYPRP, the “shrunken log2 fold change” value was -0.142.

For the sequence RRIRLRPPRLPRPRPRPDLCPRP, the “shrunken log2 fold change” value worked out at 0.307.

Turning to RRIRARPPRLPRPRPRPNERPRP, the “shrunken log2 fold change” value was found to be 0.531.

Consider RRIRTRPPRLPRPRPRPPMWPRP, for which the “shrunken log2 fold change” value stood at 0.0903.

In the case of RRIRARPPRLPRPRPRPRSCPRP, the “shrunken log2 fold change” value is 0.306.

For RRIRVRPPRLPRPRPRPIILPRP, the “shrunken log2 fold change” value is -0.483.

As to RRIRKRPPRLPRPRPRPSTSPRP, the “shrunken log2 fold change” value was -0.0896.

Take RRIRTRPPRLPRPRPRPMMDPRP: the “shrunken log2 fold change” value was -0.141.

RRIRTRPPRLPRPRPRPWDMPRP: the “shrunken log2 fold change” value was -0.33.

For the sequence RRIRERPPRLPRPRPRPNVYPRP, the “shrunken log2 fold change” value is -0.439.

With RRIRARPPRLPRPRPRPIKFPRP, the “shrunken log2 fold change” value was -0.126.

As to RRIRMRPPRLPRPRPRPRRPPRP, the “shrunken log2 fold change” value worked out at 1.16.

On to RRIRLRPPRLPRPRPRPGFSPRP, for which the “shrunken log2 fold change” value is -0.161.

With RRIRNRPPRLPRPRPRPHVQPRP, the “shrunken log2 fold change” value is -0.0883.

Consider RRIRQRPPRLPRPRPRPMRCPRP, for which the “shrunken log2 fold change” value was 0.054.

On to RRIRSRPPRLPRPRPRPHLMPRP, for which the “shrunken log2 fold change” value is -0.0307.

For RRIRVRPPRLPRPRPRPMDHPRP, the “shrunken log2 fold change” value is -0.426.

Regarding RRIRVRPPRLPRPRPRPYIEPRP, the “shrunken log2 fold change” value was -0.584.

As for RRIRSRPPRLPRPRPRPILTPRP, the “shrunken log2 fold change” value is -0.125.

In the case of RRIRCRPPRLPRPRPRPGISPRP, the “shrunken log2 fold change” value is -0.195.

Regarding RRIRQRPPRLPRPRPRPYWNPRP, the “shrunken log2 fold change” value was -1.21.

Turning to RRIRQRPPRLPRPRPRPINSPRP, the “shrunken log2 fold change” value was -0.413.

For RRIRERPPRLPRPRPRPVDDPRP, the “shrunken log2 fold change” value came to 0.133.

In the case of RRIRPRPPRLPRPRPRPCKGPRP, the “shrunken log2 fold change” value was -0.252.

For RRIRARPPRLPRPRPRPMCAPRP, the “shrunken log2 fold change” value came out at 0.813.

Take RRIRNRPPRLPRPRPRPHCSPRP: the “shrunken log2 fold change” value is -0.095.

Consider RRIRDRPPRLPRPRPRPPPKPRP, for which the “shrunken log2 fold change” value came out at 1.09.

As for RRIRQRPPRLPRPRPRPRHKPRP, the “shrunken log2 fold change” value was 0.0456.

For the sequence RRIRHRPPRLPRPRPRPTRYPRP, the “shrunken log2 fold change” value is -0.453.

Consider RRIRVRPPRLPRPRPRPYVNPRP, for which the “shrunken log2 fold change” value was determined as 0.0651.

RRIRSRPPRLPRPRPRPGFAPRP: the “shrunken log2 fold change” value worked out at 0.502.

For RRIRERPPRLPRPRPRPYKGPRP, the “shrunken log2 fold change” value is -0.0341.

Regarding RRIRERPPRLPRPRPRPPSSPRP, the “shrunken log2 fold change” value amounted to 0.0527.

Consider RRIRFRPPRLPRPRPRPCLHPRP, for which the “shrunken log2 fold change” value is -0.542.

For RRIRWRPPRLPRPRPRPQNLPRP, the “shrunken log2 fold change” value was -0.103.

For the sequence RRIRFRPPRLPRPRPRPPFRPRP, the “shrunken log2 fold change” value turned out to be 1.84.

With RRIRWRPPRLPRPRPRPNSCPRP, the “shrunken log2 fold change” value is 0.0578.

For RRIRYRPPRLPRPRPRPSAYPRP, the “shrunken log2 fold change” value was -0.854.

With RRIRGRPPRLPRPRPRPSTLPRP, the “shrunken log2 fold change” value was determined as 0.152.

For the sequence RRIRIRPPRLPRPRPRPSQDPRP, the “shrunken log2 fold change” value was -0.31.

RRIRWRPPRLPRPRPRPHQKPRP: the “shrunken log2 fold change” value amounted to 0.0146.

As to RRIRFRPPRLPRPRPRPSACPRP, the “shrunken log2 fold change” value is 0.0977.

Consider RRIRYRPPRLPRPRPRPPHCPRP, for which the “shrunken log2 fold change” value was -0.396.

As to RRIRTRPPRLPRPRPRPTREPRP, the “shrunken log2 fold change” value is -0.157.

RRIRNRPPRLPRPRPRPSEGPRP: the “shrunken log2 fold change” value was -0.0276.

For the sequence RRIRGRPPRLPRPRPRPNQSPRP, the “shrunken log2 fold change” value worked out at 0.17.

Regarding RRIRRRPPRLPRPRPRPIYHPRP, the “shrunken log2 fold change” value was -0.258.

Regarding RRIRLRPPRLPRPRPRPNTHPRP, the “shrunken log2 fold change” value is -0.473.

For the sequence RRIRFRPPRLPRPRPRPWQGPRP, the “shrunken log2 fold change” value is 0.00425.

With RRIRARPPRLPRPRPRPSLVPRP, the “shrunken log2 fold change” value came out at 0.413.

As for RRIRRRPPRLPRPRPRPWCKPRP, the “shrunken log2 fold change” value was -0.0285.

On to RRIRSRPPRLPRPRPRPGQRPRP, for which the “shrunken log2 fold change” value was 0.0367.

RRIRLRPPRLPRPRPRPENDPRP: the “shrunken log2 fold change” value is -0.336.

RRIRTRPPRLPRPRPRPPIKPRP: the “shrunken log2 fold change” value was -0.368.

As to RRIRVRPPRLPRPRPRPIPYPRP, the “shrunken log2 fold change” value is -0.0701.

As for RRIRGRPPRLPRPRPRPMYQPRP, the “shrunken log2 fold change” value was -0.0304.

RRIRKRPPRLPRPRPRPEHCPRP: the “shrunken log2 fold change” value came to 0.0607.

Consider RRIRPRPPRLPRPRPRPHTYPRP, for which the “shrunken log2 fold change” value was -0.942.

RRIRNRPPRLPRPRPRPFWTPRP: the “shrunken log2 fold change” value was -0.132.

In the case of RRIRKRPPRLPRPRPRPHDRPRP, the “shrunken log2 fold change” value worked out at 0.29.

With RRIRPRPPRLPRPRPRPAWVPRP, the “shrunken log2 fold change” value is 0.401.

Take RRIRWRPPRLPRPRPRPGHTPRP: the “shrunken log2 fold change” value was 0.0581.

RRIRSRPPRLPRPRPRPARKPRP: the “shrunken log2 fold change” value amounted to 0.213.

For the sequence RRIRPRPPRLPRPRPRPQCIPRP, the “shrunken log2 fold change” value is -0.182.

For the sequence RRIRSRPPRLPRPRPRPLPWPRP, the “shrunken log2 fold change” value was 0.21.

Take RRIRTRPPRLPRPRPRPDMPPRP: the “shrunken log2 fold change” value was -0.064.

On to RRIRQRPPRLPRPRPRPDQCPRP, for which the “shrunken log2 fold change” value is -0.0972.

Regarding RRIRTRPPRLPRPRPRPRTDPRP, the “shrunken log2 fold change” value is -0.0849.

For RRIRIRPPRLPRPRPRPPMDPRP, the “shrunken log2 fold change” value is -0.372.

As to RRIRLRPPRLPRPRPRPGGIPRP, the “shrunken log2 fold change” value was -0.0154.

Consider RRIRPRPPRLPRPRPRPDQFPRP, for which the “shrunken log2 fold change” value was -0.0233.

In the case of RRIRQRPPRLPRPRPRPGAYPRP, the “shrunken log2 fold change” value is -0.506.

Take RRIRIRPPRLPRPRPRPHQPPRP: the “shrunken log2 fold change” value was -0.421.

Regarding RRIRIRPPRLPRPRPRPCFGPRP, the “shrunken log2 fold change” value was -0.415.

For RRIRDRPPRLPRPRPRPTMPPRP, the “shrunken log2 fold change” value was -0.121.

For the sequence RRIRLRPPRLPRPRPRPLFQPRP, the “shrunken log2 fold change” value was -0.322.

For RRIRVRPPRLPRPRPRPGWPPRP, the “shrunken log2 fold change” value worked out at 0.433.

Regarding RRIRDRPPRLPRPRPRPQYVPRP, the “shrunken log2 fold change” value is -0.229.

For RRIRSRPPRLPRPRPRPPYFPRP, the “shrunken log2 fold change” value was -0.0285.

With RRIRFRPPRLPRPRPRPFADPRP, the “shrunken log2 fold change” value was -0.0172.

With RRIRTRPPRLPRPRPRPQLVPRP, the “shrunken log2 fold change” value came out at 0.0727.

In the case of RRIRTRPPRLPRPRPRPRNEPRP, the “shrunken log2 fold change” value is -0.0624.

On to RRIRRRPPRLPRPRPRPMEFPRP, for which the “shrunken log2 fold change” value worked out at 0.0274.

With RRIRDRPPRLPRPRPRPAPNPRP, the “shrunken log2 fold change” value was 0.138.

Turning to RRIRFRPPRLPRPRPRPHWQPRP, the “shrunken log2 fold change” value was -0.119.

As for RRIRARPPRLPRPRPRPGVHPRP, the “shrunken log2 fold change” value is 0.243.

Take RRIRERPPRLPRPRPRPSCWPRP: the “shrunken log2 fold change” value is 0.101.

In the case of RRIRFRPPRLPRPRPRPAFEPRP, the “shrunken log2 fold change” value stood at 0.226.

Take RRIRFRPPRLPRPRPRPMENPRP: the “shrunken log2 fold change” value was -0.0803.

In the case of RRIRSRPPRLPRPRPRPEGVPRP, the “shrunken log2 fold change” value was found to be 0.552.

Turning to RRIRMRPPRLPRPRPRPTKVPRP, the “shrunken log2 fold change” value was found to be 0.126.

As for RRIRHRPPRLPRPRPRPAECPRP, the “shrunken log2 fold change” value is -0.696.

For the sequence RRIRTRPPRLPRPRPRPEGAPRP, the “shrunken log2 fold change” value is 0.783.

In the case of RRIRSRPPRLPRPRPRPRDMPRP, the “shrunken log2 fold change” value stood at 0.446.

For the sequence RRIRCRPPRLPRPRPRPIGWPRP, the “shrunken log2 fold change” value was -0.0817.

Turning to RRIRIRPPRLPRPRPRPRCFPRP, the “shrunken log2 fold change” value was -0.141.

For the sequence RRIRSRPPRLPRPRPRPDIQPRP, the “shrunken log2 fold change” value is -0.274.

Regarding RRIRPRPPRLPRPRPRPLYWPRP, the “shrunken log2 fold change” value is -0.0211.

As to RRIRWRPPRLPRPRPRPRPDPRP, the “shrunken log2 fold change” value was 0.518.

In the case of RRIRNRPPRLPRPRPRPYEYPRP, the “shrunken log2 fold change” value is -0.675.

Consider RRIRNRPPRLPRPRPRPWKPPRP, for which the “shrunken log2 fold change” value came to 0.0219.

Take RRIRLRPPRLPRPRPRPYYAPRP: the “shrunken log2 fold change” value was -0.484.

As for RRIRIRPPRLPRPRPRPKMAPRP, the “shrunken log2 fold change” value is -0.179.

For RRIRIRPPRLPRPRPRPAQHPRP, the “shrunken log2 fold change” value was -0.0384.

Turning to RRIRERPPRLPRPRPRPQAQPRP, the “shrunken log2 fold change” value was -0.0773.

Consider RRIRYRPPRLPRPRPRPVSSPRP, for which the “shrunken log2 fold change” value is -0.272.

As to RRIRPRPPRLPRPRPRPFMIPRP, the “shrunken log2 fold change” value was 0.471.

In the case of RRIRPRPPRLPRPRPRPRRHPRP, the “shrunken log2 fold change” value amounted to 0.241.

On to RRIRSRPPRLPRPRPRPIGFPRP, for which the “shrunken log2 fold change” value was -0.0486.

As to RRIRARPPRLPRPRPRPPETPRP, the “shrunken log2 fold change” value stood at 0.55.

Regarding RRIRLRPPRLPRPRPRPGTLPRP, the “shrunken log2 fold change” value stood at 0.0174.

Regarding RRIRSRPPRLPRPRPRPGEMPRP, the “shrunken log2 fold change” value is 0.336.

Regarding RRIRMRPPRLPRPRPRPQFIPRP, the “shrunken log2 fold change” value was -0.0965.
